Laboratory results as given in publication PMC8377413.

What was measured:
[1] = biological target: OsPPR676 (recombinant, Expi293) (rice); assay: MST; Monolith NT.115; 100 nM target protein labelled with His-Tag Labeling Kit RED-tris-NTA 2nd generation, serial dilutions of unlabelled ligand; PBS with 0.05% Tween 20; 35% MST power, 60% LED power, 24°C
[2] = biological target: Osj10gBTF3 (recombinant, Expi293) (rice); assay: as above

| Kd [1] | Kd [2] | Substance |
| --- | --- | --- |
| 15.1 µM | 9.8 µM | OsCpn60 (recombinant, Expi293) (natural protein) |
| – | 24.3 µM | OsPPR676 (recombinant, Expi293) (natural protein) |
